Data taken from patent US20030175288A1 (GREEN PEPTIDE, published 2003).

B1: P3 (peptide)
peptide: LIADFLSGL
notes: synthetic peptide; also called gene 1 (UBE2V) 85-93
B2: P2 (peptide)
peptide: LLLLARWEDT
notes: synthetic peptide; also called gene 1 (UBE2V) 64-73
B3: P7 (peptide)
peptide: CLYGNVEKV
notes: synthetic peptide; also called gene 2 (HNRPL) 404-412
B4: P12 (peptide)
peptide: MLPLECQYL
notes: synthetic peptide; also called gene 3 (WHSC2) 157-165
B5: P9 (peptide)
peptide: NVLHFFNAPL
notes: synthetic peptide; also called gene 2 (HNRPL) 501-510
B6: P5 (peptide)
peptide: ILPRKHHRI
notes: synthetic peptide; also called gene 1 (UBE2V) 208-216
B7: P11 (peptide)
peptide: ILGELREKV
notes: synthetic peptide; also called gene 3 (WHSC2) 141-149
B8: P13 (peptide)
peptide: TLLRKERGV
notes: synthetic peptide; also called gene 3 (WHSC2) 267-275
B9: P17 (peptide)
peptide: GLLFLHTRT
notes: synthetic peptide; also called gene 5 (ppMAPkkk) 294-302
B10: P14 (peptide)
peptide: RIIYDRKFL
notes: synthetic peptide; also called EIF4EBP1 51-59; gene 4 51-59
B11: P15 (peptide)
peptide: IIYDRKFLM
notes: synthetic peptide; also called gene 4 (EIF4EBP1) 52-60
B12: P16 (peptide)
peptide: QILKGLLFL
notes: synthetic peptide; also called gene 5 (ppMAPkkk) 290-298
B13: P1 (peptide)
peptide: RLQEWCSVI
notes: synthetic peptide; positions counted on the gene 1 product; also called UBE2V 43-51; gene 1 43-51

These binders were tested against T1, HLA-A0201 molecule on T2 cells (human) (assay: T2 cells with 10 µM peptide, HLA-A2 stained with mAb BB7.2, flow cytometry (relative MFI)).
T1 construct: MHC class I molecule without peptide on T2 cells; detected with anti-HLA-A2 mAb BB7.2; also called HLA-A2 molecule
Method: Binding activity of the peptide to the HLA-A0201 molecule was tested using a T2 cell mutant strain (Cancer Res., 54:1071-1076, 1994.) The T2 cell expresses the HLA-A2 molecule on a cell surface without binding to a peptide, because of deficiency of TAP. Specifically, the synthesized peptide (10 μM) and the T2 cells were incubated at 26° C. for 3 h and, subsequently, incubated in 5% CO₂ and 95% air at 37° C. for 3 h. Thus, T2 cells, on whose surface the peptide was presented by HLA-A2, were obtained.

**Q.** With LLQDWHVIL (synthetic peptide) [P4] as the binder, how does the MFI read?
**A.** 1010

**Q.** With B1 as the binder, how does the MFI read?
**A.** 910

**Q.** With B2 as the binder, how does the MFI read?
**A.** 607

**Q.** Which MFI does the source give for B3 here?
**A.** 783

**Q.** With B4 as the binder, how does the MFI read?
**A.** 780

**Q.** Which MFI does the source give for B5 here?
**A.** 832

**Q.** With B6 as the binder, how does the MFI read?
**A.** 637

**Q.** With B7 as the binder, how does the MFI read?
**A.** 1090

**Q.** Which MFI does the source give for B8 here?
**A.** 656

**Q.** For B9, which MFI is on record?
**A.** 660

**Q.** How did the MFI turn out when B10 was run?
**A.** 591

**Q.** DLLSHAFFA (synthetic peptide) [P18] was tested. Which MFI did it give?
**A.** 657

**Q.** B11 was tested. Which MFI did it give?
**A.** 789

**Q.** With B12 as the binder, how does the MFI read?
**A.** 887

**Q.** For B13, which MFI is on record?
**A.** 571

**Q.** For QQLCVYWTV (synthetic peptide) [P19], which MFI is on record?
**A.** 775

**Q.** Which MFI does the source give for ALVEFEDVL (synthetic peptide) [P6] here?
**A.** 819
